Results as given in US20140162285A1, “Methods of Modulating Vesicular Trafficking” (The General Hospital Corporation, priority 2009, published 2014).
“Also recorded” adds a separate entry of the source. Values belong to the molecule of their own block, whether it stands above or below them. Square brackets hold non-standard residues; d marks the D form. Ends that are not written are not given here. * marks the point of attachment. Biotin = O=C1N[C@H]2[C@H](CS[C@H]2CCCCC(=O)*)N1; pS = N[C@@H](COP(=O)(O)O)C(=O)O

Columns and labels:
GST-ARNO(wt) = biological target: T1, GST-ARNO(wt) (Homo sapiens, UniProt Q99418); assay: a2N-derived peptide pull-down assay with GST-ARNO(wt); format: binding; parameters: key to interaction with ARNO (asterisk mark in Table 1): The interacting peptides are indicated in bold with an asterisk (*); conditions: for interaction of a2N-derived peptide with GST-ARNO(wt) in pull-down: Western blot anti-GST, GST-only as control; for interaction with ARNO (asterisk mark in Table 1): biotin-tagged peptides on streptavidin beads
T1 construct: i) 1-400aa, full length ARNO(wt); made in house; host or cells: E. coli BL21(DE3)
T1 sequence (Q99418 1-400): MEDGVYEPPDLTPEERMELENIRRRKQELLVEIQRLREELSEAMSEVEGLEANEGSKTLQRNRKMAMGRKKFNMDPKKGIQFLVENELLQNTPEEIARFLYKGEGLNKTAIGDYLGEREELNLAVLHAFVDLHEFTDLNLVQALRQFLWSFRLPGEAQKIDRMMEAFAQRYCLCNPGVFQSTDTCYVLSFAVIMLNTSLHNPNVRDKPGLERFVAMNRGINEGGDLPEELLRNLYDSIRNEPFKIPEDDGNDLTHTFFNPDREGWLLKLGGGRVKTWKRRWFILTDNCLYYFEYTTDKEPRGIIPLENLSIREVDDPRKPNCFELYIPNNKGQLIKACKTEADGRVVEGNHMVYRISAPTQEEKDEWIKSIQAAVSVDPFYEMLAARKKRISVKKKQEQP
Description: FIG. 2A is an image of a Western blot showing the results of an a2N-derived peptide pull-down assay. The indicated a2N-derived peptides were immobilized on streptavidin-beads and incubated with purified recombinant GST-ARNO(wt). Interacting complexes were eluted and analyzed by Western blotting using monoclonal anti-GST antibodies.
FIG. 2B is an image of a Western blot showing the results of a pull-down assay with selected a2N-derived interacting peptides incubated with either GST (negative control) or GST-ARNO(wt). The first two lanes show the patterns obtained when either GST-only (lane 1) or GST-ARNO(wt) (lane 2) were loaded onto the gel.
Peptides were synthesized, purified by HPLC and analyzed by mass spectrometry in the MGH Peptide/Protein Core Facility. All a2N-derived peptides were synthesized with a biotin-tag on the N-terminus for immobilization on streptavidin-agarose beads and with an additional C-terminal cysteine residue for immobilization on beads using sulfhydryl-specific crosslinkers. A peptide corresponding to the PB-domain of ARNO was synthesized containing either a non-phosphorylated or a phosphorylated Ser392 residue. Peptide stock solutions were prepared in DMSO at 5 mM concentration and stored at −20° C. […]

6His-a2N(wt) = biological target: T2, 6His-a2N(wt) (Mus musculus, UniProt P15920); assay: ARNO-derived peptide pull-down with in vitro translated 6His-a2N(wt); format: binding; conditions: 7 nmol biotin-tagged peptide on streptavidin-agarose beads
T2 construct: amino acid residues 1-402 of mouse V-ATPase a2-subunit (a2N1-402); made in house; host or cells: cell-free in vitro translation
T2 sequence (P15920 1-402): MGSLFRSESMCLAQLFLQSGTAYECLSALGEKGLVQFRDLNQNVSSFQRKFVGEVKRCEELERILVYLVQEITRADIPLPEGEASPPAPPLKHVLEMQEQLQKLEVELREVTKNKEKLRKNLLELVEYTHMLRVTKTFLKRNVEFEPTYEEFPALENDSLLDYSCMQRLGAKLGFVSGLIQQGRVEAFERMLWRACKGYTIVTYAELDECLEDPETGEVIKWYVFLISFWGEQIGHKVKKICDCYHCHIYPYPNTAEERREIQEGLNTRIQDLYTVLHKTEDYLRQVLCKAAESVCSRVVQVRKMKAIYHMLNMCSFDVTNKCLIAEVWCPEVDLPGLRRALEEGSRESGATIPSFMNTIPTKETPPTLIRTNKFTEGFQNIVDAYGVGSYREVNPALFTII
Description: FIGS. 4B-C are images of Western blots showing (4B) the results of peptide pull-down assays for interaction of a2N with Sec7-PH-linker of ARNO and (4C) phosphorylation-dependent interaction of a2N with ARNO-derived peptide corresponding to the PB-domain of ARNO. Corresponding ARNO-derived peptides were immobilized on streptavidin-beads and incubated with in vitro translated recombinant a2N. Interacting complexes were eluted and analyzed by Western blotting using anti-a2N antibodies.
ARNO-derived peptides, equal amounts (7 nmol) of biotin-tagged synthetic peptides were also immobilized on streptavidin-agarose beads followed by incubation with 10 μl of in vitro translated 6His-a2N(wt) recombinant protein. Pull-down experiments and SDS-PAGE analysis were performed as described above and interacting 6His-a2N/ARNO-derived-peptide complexes were analyzed by Western blotting using polyclonal anti-a2N antibody. All experiments were repeated at least three times with similar results.

GST-only = biological target: T3, GST-only (UniProt P08515 1-218 = GST); assay: peptide pull-down: biotinylated peptide on streptavidin-agarose beads, GST-only in solution, Western blot with anti-GST antibody
T3 construct: Control bait/prey in pull-down assays; also called GST (negative control)
Description: FIGS. 5A-C are a set of three images of Western blots showing the identification of interaction motif of a2N that is involved in specific binding with the Sec7 domain of ARNO. 5A, The catalytic Sec7 domain of ARNO interacts with two a2N-derived peptides, a2N-01 and a2N-03, in pull-down experiments. The peptide pull-down assay was performed with six a2N-derived interaction peptides immobilized on streptavidin-beads and incubated with purified recombinant GST-only or GST-Sec7 domain. Interacting complexes were eluted and analyzed by Western blotting using monoclonal anti-GST antibodies as described below. The loading controls for GST-only (lane 1) or GST-Sec7 (lane 2) are shown. 5B, 5C: Peptide a2N-01 specifically interacts with Sec7 but not PH-domain (5B) or PB-domain (5C) of ARNO. The peptide pull-down assay was performed with peptides a2N-01 and a2N-03 immobilized on streptavidin-beads and incubated with purified recombinant GST-PH domain (5B) or GST-PB domain (5C). Interacting complexes were eluted and analyzed by Western blotting using monoclonal anti-GST antibodies. The loading control of GST-PH-domain (5B) or GST-PB-domain (5C) is shown on the left.
These a2N-derived peptides were immobilized by an N-terminal biotin-tag, which ensured the same efficiency and equivalent binding to streptavidin-agarose beads. Simultaneous pull-down experiments with immobilized peptides were performed using highly purified recombinant GST-only or GST-Sec7-6His as described below. […] To remove unbound peptides, beads were collected by centrifugation and washed in 500 μl ice-cold binding buffer. Next, equal amounts (20 pmoles) of highly purified recombinant GST-only or GST-Sec7-6His were added to the beads containing immobilized peptides and incubated for 2 hours at 4° C. in 500 μl of binding buffer. After washing beads four times in ice-cold binding buffer, the interacting complexes were eluted by boiling in SDS-PAGE sample buffer for 10 min at 95° C., resolved by SDS-PAGE and analyzed by Western blotting using monoclonal anti-GST antibody.

[1] = biological target: T4, purified 6His-a2N (recombinant a2N protein, a2N1-402, expressed in E. coli and refolded) (mouse, UniProt P15920 1-402); assay: SPR (BIAcore T100), a2N immobilised on CM4 chip, ARNO(wt) as analyte, bivalent analyte fit
T4 construct: Immobilised by amine coupling on a CM4 chip for SPR; also called a2N(wt); a2N-His6(wt)
T4 sequence: T2 sequence (P15920 1-402)
Description: All reagents, including buffers, sensor chips and the amine coupling kit, were obtained from GE Healthcare. For kinetic analysis of the binding of ARNO(wt) with a2N(wt), purified 6His-a2N (5 μg/ml) in 10 mM sodium acetate (pH 4.0) was immobilized at 80 response units (RU) on a CM4 sensor chip using an amine coupling kit according to the manufacturer's instructions. The same kit was used to perform blank immobilization to create a reference surface on the same chip. Samples of purified GST-ARNO(wt) at concentrations ranging from 0.25-4 μM were injected for 6 min over active and reference surfaces at a flow rate of 30 μl/min in NBS-EP, 1 mM DTT running buffer (10 mM Hepes, pH 7.4, 150 mM NaCl, 3 mM EDTA, 0.05% Surfactant P20, 1 mM DTT). For kinetic analysis of the binding of the ARNO Sec7-domain with a2N-01 peptide, neutravidin (10 μg/ml) in 10 mM sodium acetate (pH 5.0) was immobilized at about 1200 RU on two surfaces of a CM4 sensor chip using an amine coupling kit. Following that, biotinylated a2N-01 peptide (50 RU) and amine-PEG₃-biotin (25 RU) were irreversibly captured by neutravidin to create active and a reference surfaces, respectively. Purified Sec7-6His recombinant protein was injected for 3.5 min over active and reference surfaces at concentrations ranging from 0.05-1 μM and a flow rate of 100 μl/min in NBS-EP, 1 mM DTT running buffer. Dissociation of the complexes was monitored for 10 min, and then the regeneration of the sensor surfaces was performed using 0.05% SDS with 1-min injection in the running buffer at a 20 μl/min flow rate. BIAcore™ T100 Evaluation software was used to calculate the association and dissociation rate constants (kₒₙ and koff) with a 1:1 fitting model. The dissociation constant (KD) was determined from the kₒₙ/koff values. To estimate affinity of interaction the corresponding free energy of binding ΔGbind=RTlnKD was calculated as previously described (Marles et al., Mol Cell 14 (2004) 813-823).
Specific concentration-dependent responses were obtained for both interactions. […]

T3 sequence (P08515 whole entry): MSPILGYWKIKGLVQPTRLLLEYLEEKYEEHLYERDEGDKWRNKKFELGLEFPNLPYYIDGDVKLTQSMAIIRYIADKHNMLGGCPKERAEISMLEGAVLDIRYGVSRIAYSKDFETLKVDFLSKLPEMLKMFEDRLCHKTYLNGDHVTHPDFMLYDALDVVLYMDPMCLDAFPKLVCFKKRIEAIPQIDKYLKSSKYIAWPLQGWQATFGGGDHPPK

Molecule: Bio-NMCSFDVTNKCLIAEVWCP-Cys (NMCSFDVTNKCLIAEVWCPC) [a2N-18, AA 313-331 of a2N]
- interaction of a2N-derived peptide with GST-ARNO(wt) in pull-down (GST-ARNO(wt)): specific interaction; also recorded: capable of interaction with ARNO
- interaction with ARNO (asterisk mark in Table 1) (GST-ARNO(wt)): Bio-NMCSFDVTNKCLIAEVWCP-Cys *

Molecule: Bio-ETGEVIKWYVFLISFW-Cys (ETGEVIKWYVFLISFWC) [a2N-12, AA 215-230 of a2N]
- interaction of a2N-derived peptide with GST-ARNO(wt) in pull-down (GST-ARNO(wt)): specific interaction; also recorded: capable of interaction with ARNO
- interaction with ARNO (asterisk mark in Table 1) (GST-ARNO(wt)): Bio-ETGEVIKWYVFLISFW-Cys *

Molecule: Bio-GYTIVTYAELDECLEDP-Cys (GYTIVTYAELDECLEDPC) [a2N-11, AA 198-214 of a2N]
- interaction of a2N-derived peptide with GST-ARNO(wt) in pull-down (GST-ARNO(wt)): specific interaction; also recorded: capable of interaction with ARNO
- interaction with ARNO (asterisk mark in Table 1) (GST-ARNO(wt)): Bio-GYTIVTYAELDECLEDP-Cys *

Molecule: ARNO375-400: biotinylated non-phosphorylated peptide covering the PB-domain of ARNO plus four PH/PB-linker amino acids, SEQ ID NO:32 (VSVDPFYEMLAARKKRISVKKKQEQP; also: biotinylated, site not given here)
- interaction of ARNO-derived peptide with a2N (6His-a2N(wt)): direct interaction

Molecule: Biotin-GYTIVTYAELDECLEDPC (cysteine pairing not given here, also called a2N198-214) [a2N-11]
- binding result (GST-only): no binding

Molecule: Biotin-NMCSFDVTNKCLIAEVWCPC (cysteine pairing not given here, also called a2N313-331) [a2N-18]
- binding result (GST-only): no binding

Molecule: Biotin-YGVGSYREVNPALFTIIC [a2N-22]
- binding result (GST-only): no binding

Second part, led by results:

- interaction of a2N-derived peptide with GST-ARNO(wt) in pull-down (GST-ARNO(wt)): did not bind
Molecule: Bio-KHVLEMQEQLQKLEVELREVTKNKEKLRKNLLELVE-Cys (KHVLEMQEQLQKLEVELREVTKNKEKLRKNLLELVEC) [a2N-06, AA 92-127, predicted CC-domain of a2N]

- interaction with ARNO (asterisk mark in Table 1) (GST-ARNO(wt)): Bio-YGVGSYREVNPALFTII-Cys *
Molecule: Bio-YGVGSYREVNPALFTII-Cys (YGVGSYREVNPALFTIIC) [a2N-22, AA 386-402 of a2N]
- interaction of a2N-derived peptide with GST-ARNO(wt) in pull-down (GST-ARNO(wt)): specific interaction; also recorded: capable of interaction with ARNO

- interaction of ARNO-derived peptide with a2N (6His-a2N(wt)): completely abolished
Molecule: ARNO375-440^P: phosphorylated version (Ser392) of the ARNO PB-domain peptide, SEQ ID NO:33 (VSVDPFYEMLAARKKRI[pS]VKKKQEQP)

- binding result (GST-only): no binding
Molecule: Biotin-VQFRDLNQNVSSFQRC (also called a2N35-49) [a2N-03]

- binding result (GST-only): no binding
Molecule: Biotin-ETGEVIKWYVFLISFWC (also called a2N215-230) [a2N-12]

- Kd [1]: 313 nM
- koff [1]: 0.0015 s⁻¹
- kon [1]: 4770 M⁻¹ s⁻¹
B1: GST-ARNO(wt) (other, human, UniProt Q99418 1-400, looked up)
chain: T1 sequence (Q99418 1-400)
notes: range 1-400; Double-tagged construct (N-terminal GST, C-terminal 6xHis); also called full length ARNO(wt); wild-type ARNO; not shown: N-terminal GST-tag from the pGEX6P-1 vector; C-terminal 6xHis-tag
